Data as given in publication PMC4130184.

Biological target: T1, PRIN2;CSP41b (Arabidopsis thaliana?;Arabidopsis thaliana?) (UniProt Q9XIK0+Q9SA52)
T1 sequence 1: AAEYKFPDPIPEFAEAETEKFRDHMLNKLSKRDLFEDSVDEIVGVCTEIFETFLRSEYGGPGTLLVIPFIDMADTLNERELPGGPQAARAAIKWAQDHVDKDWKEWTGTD
T1 sequence 2: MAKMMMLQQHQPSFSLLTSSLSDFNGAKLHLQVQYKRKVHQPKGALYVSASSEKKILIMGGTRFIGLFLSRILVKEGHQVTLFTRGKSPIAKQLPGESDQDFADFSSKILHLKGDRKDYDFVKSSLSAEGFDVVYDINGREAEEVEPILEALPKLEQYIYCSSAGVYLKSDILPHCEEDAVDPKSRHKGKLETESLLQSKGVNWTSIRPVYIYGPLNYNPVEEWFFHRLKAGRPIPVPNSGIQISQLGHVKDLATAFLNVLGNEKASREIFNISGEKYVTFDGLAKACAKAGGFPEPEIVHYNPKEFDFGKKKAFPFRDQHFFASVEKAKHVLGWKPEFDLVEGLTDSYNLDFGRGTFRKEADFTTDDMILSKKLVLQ
Assay: EMSA
Settings: EMSA: 10 mM Tris-HCl, 25 mM KCl, 1 mM DTT (1x from 10x stock; pH not stated), 1 ug poly(dI-dC) per 25 uL, 2.5% glycerol, 0.05% Triton X-100, 5 mM MgCl2, 10 mM …

Sequence: ACCCACTACGGATCGTATTCAATCGTATTCATATGATTTGGAAAAAATATTCCTAGAGCAATTCTATTTCTATGTATGTGGATTCGCTTCTAATTTATTTCATCGATTACAAAAAATTTTTTATGAATCTAAACTAAAAGGATCTTATCCATTTTACATTGGTTGACATGGCTATATAAGTCATGTTATACTGTTTC (double strand) [psbA promoter probe (197/198 bp)]
- binding: binds
